Measurements: paper PMC11200690 (Antibodies, 2024)

Target: T1, recombinant human HER2 ECD protein (Homo sapiens, UniProt P04626)
T1 construct: human epidermal growth factor receptor-2 (HER2, Erbb2), extracellular domain; also called HER2 antigen; Erbb2; source: bought: SinoBiological (10004-H08H)
Assay: BLI; scFv formats against HER2 ECD; set-up not told (Figure S2)
Details: both partners purified

- Kd: 9 nM
B1: Ab8 scFv (scFv, V domains shown)
VH: QVQLGESGGGVVRPGGSLRLSCAASGFTFSSYAMSWVRQAPGKGLEWVSAISGSGGSTYYADSVKGRFTISRENAKNSLYLQMNSLRAEDTAVYYCARRGGVWAFDIWGQGTMVTVSS
VL: DVVMTQSPLSLPVTPGEPASISCRSSQSLLHSNGINYLDWYLQKPGQSPQLLIYLGSSRASGVPDRFSGSGSGTDFTLKISRVEAEDVGVYFCMQALQTPLTFGQGTKLEIK
notes: as the VH of m1; as the VL of m1; also called scFv Ab8; ScFv of Ab8; source: HB2151 cells (pComb3x plasmid), purified (Ni-NTA); not shown: Flag, C-terminal, kept
